Measured values published in publication PMC7840605, “3-Hydroxyphthalic Anhydride-Modified Chicken Ovalbumin as a Potential Candidate Inhibits SARS-CoV-2 Infection by Disrupting the Interaction of Spike Protein With Host ACE2 Receptor” (Frontiers in Pharmacology, 2020).

Target: SARS-CoV-2 spike (S) protein (SARS-CoV-2, UniProt P0DTC2)
Assay: cell-based or functional assay

B1: chicken ovalbumin (natural protein)
chain: MGSIGAASMEFCFDVFKELKVHHANENIFYCPIAIMSALAMVYLGAKDSTRTQINKVVRFDKLPGFGDSIEAQCGTSVNVHSSLRDILNQITKPNDVYSFSLASRLYAEERYPILPEYLQCVKELYRGGLEPINFQTAADQARELINSWVESQTNGIIRNVLQPSSVDSQTAMVLVNAIVFKGLWEKAFKDEDTQAMPFRVTEQESKPVQMMYQIGLFRVASMASEKMKILELPFASGTMSMLVLLPDEVSGLEQLESIINFEKLTEWTSSNVMEERKIKVYLPRMKMEEKYNLTSVLMAMGITDVFSSSANLSGISSAESLKISQAVHAAHAEINEAGREVVGSAEAGVDAASVSEEFRADHPFLFCIKHIATNAVLFFGRCVSP
B1 was tested, and the “IC50 against live SARS-CoV-2 in Vero E6 cells (CPE assay)” value was > 50 µM.
